According to the supplement of paper PMC9170038:

System: MS2 coat protein
Experiment: apparent KD of MS2 coat protein; higher = weaker reporter binding
Conditions: Eterna round: R107
Outline: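 Normalised binding curves from single clusters were fitted, and the median fit for each design is given as apparent KD. The clusters held designed RNA switches transcribed on-chip from Illumina sequencing clusters. These were titrated with SNAP-549-labelled MS2 coat protein (twofold steps from 0.7 or 1.5 nM to 3 µM, 0.8–1.5 h to 10–20 min per step) in 100 mM Tris-HCl pH 7.5, 80 mM KCl, 4 mM MgCl2, without or with constant ligand.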

[1] = input ligand: theophylline 20 uM
[2] = input ligand: theophylline 2 mM
[3] = input ligand: tryptophan 2.4 mM

UGAGUUCGCUGAUGGGCUAAGUCAGGUGAUACCAGCCACUCCCGCGGCCCUUGGCAGCACAUGAGGAUCACCCAUGUAGAACUUG [Vexetela]
apparent KD of MS2 coat protein (input ligand: arginine 13.2 mM): 16 nM | apparent KD of MS2 coat protein (input ligand: none): 18.4 nM | apparent KD of MS2 coat protein [1]: 31.1 nM | apparent KD of MS2 coat protein [2]: 374 nM | apparent KD of MS2 coat protein [3]: 20.2 nM

AUUGGGUUAUCAGAUACCAGACUAUUCUAGACAUGAGGAUCACCCAUGUAUUGGGUUUUCGUCCCUUGGCAGCUGUUAAGUUUAA [JR_SSTheophyB_Sub005]
apparent KD of MS2 coat protein (input ligand: arginine 13.2 mM): 117 nM | apparent KD of MS2 coat protein [1]: 195 nM | apparent KD of MS2 coat protein [3]: 165 nM

UGUAUGUGAUUUGAUACCAGACCAGCUGGUGGUACAUGAGCAUCAGCCAUGUAGGUUUGGGUCCCUUGGCAGCAAAUCGCAUACU [SS Theo B #24 Ms2]
apparent KD of MS2 coat protein (input ligand: arginine 13.2 mM): 20.7 nM | apparent KD of MS2 coat protein (input ligand: none): 21 nM | apparent KD of MS2 coat protein [1]: 28.7 nM | apparent KD of MS2 coat protein [2]: 19.3 nM | apparent KD of MS2 coat protein [3]: 21.4 nM

AGACAUGAGGAUCACCCAUGUAGUAUGGAUACCAGAUGUAGAUUAGUCCCUUGGCAGCUGUGCUGAAGUGAUGCAUUGCUCCUAG [#15 Exclusion-TheophyllineA]
apparent KD of MS2 coat protein (input ligand: arginine 13.2 mM): 21.9 nM | apparent KD of MS2 coat protein (input ligand: none): 22.1 nM | apparent KD of MS2 coat protein [1]: 33.5 nM | apparent KD of MS2 coat protein [2]: 24.2 nM | apparent KD of MS2 coat protein [3]: 23.6 nM

CAUAUUGUAACUGAUACCAGUGUACUGACAUGAGGAUCACCCAUGUUGGGUUUUGUUGUACACCCUUGGCAGCAGAAUCAAUAUG [AstrosExyTheB#4]
apparent KD of MS2 coat protein (input ligand: arginine 13.2 mM): 45.6 nM | apparent KD of MS2 coat protein [1]: 74.2 nM | apparent KD of MS2 coat protein [3]: 60.4 nM

AAUAACAUGAGGAUCACCCAUGUAAAAGAUACCAGAGUGAUGAUCCUCCCUUGGCAGCUUAAUAACGCUAUUGGAAACAAUAGCG [Mat - Same State Theophlline A - Mod of Eli - D7]
apparent KD of MS2 coat protein (input ligand: arginine 13.2 mM): 34.9 nM | apparent KD of MS2 coat protein [1]: 158 nM | apparent KD of MS2 coat protein [3]: 59 nM

AUAAAUAAUAAAUAAAAUAAAGUGGGUGAACGAGGACCGGUACGGCCGCCACUCGGACAUGAGGAUCACCCAUGUCCAUGUGAAA [AstrosExyTry#1]
apparent KD of MS2 coat protein (input ligand: arginine 13.2 mM): 13.1 nM | apparent KD of MS2 coat protein [1]: 22.4 nM | apparent KD of MS2 coat protein [2]: 19.2 nM

AAGUGGCACGGAAGGAGCGAGUUUACCUAGAUAACAUGAGGAUCACCCAUGUAUAAUGGGACUCAGGUAGGUCGCCGUUGUCACU [#29 Same State - Arginine B]
apparent KD of MS2 coat protein (input ligand: arginine 13.2 mM): 24.9 nM | apparent KD of MS2 coat protein (input ligand: none): 34.8 nM | apparent KD of MS2 coat protein [1]: 51 nM | apparent KD of MS2 coat protein [2]: 32.8 nM | apparent KD of MS2 coat protein [3]: 30.7 nM

UCUUGAGUUUCGGAUACCAGUGUUGUCGAUACAUGAGGAUCACCCAUGUUAGAGGAUGUACACCCUUGGCAGCCGGGUGUGGCGG [tftmullin]
apparent KD of MS2 coat protein (input ligand: arginine 13.2 mM): 12.2 nM | apparent KD of MS2 coat protein (input ligand: none): 14.5 nM | apparent KD of MS2 coat protein [1]: 14.7 nM | apparent KD of MS2 coat protein [2]: 12.6 nM | apparent KD of MS2 coat protein [3]: 15.5 nM

GCUAGGUCUACGGCCGCCACUAGACGUGGGUAAGACAUGAGGAUCACCCAUGUACUACAGGCGGAUAGGACCGGGUAGACCUAGC [SSTB NP+V+V2 #13 +-Same Structure]
apparent KD of MS2 coat protein (input ligand: arginine 13.2 mM): 69.3 nM | apparent KD of MS2 coat protein [1]: 159 nM | apparent KD of MS2 coat protein [2]: 101 nM

CACAUGAGGAUCACCCAUGUCUGAACUGAAGGAGCGCUAAACAAGGCAGGUAGGUCGCGGAAUUUUGUGUGCAUAUGCACACGGG [9.R]
apparent KD of MS2 coat protein (input ligand: arginine 13.2 mM): 16.8 nM | apparent KD of MS2 coat protein (input ligand: none): 17.2 nM | apparent KD of MS2 coat protein [1]: 32.7 nM | apparent KD of MS2 coat protein [2]: 21.1 nM | apparent KD of MS2 coat protein [3]: 17.6 nM

GUCACACAGUAGGAUACCAGCGUGGCUUAUCCCUGAUCGUACAUGAGGAUCACCCAUGUCCGCCCUUGGCAGCCUCCUGCUCGGA [theeternabot_exclusion_MS2_Theo_B_33]
apparent KD of MS2 coat protein (input ligand: arginine 13.2 mM): 12.4 nM | apparent KD of MS2 coat protein [1]: 17.7 nM | apparent KD of MS2 coat protein [3]: 11.9 nM

CUCCUGGGAGCGGCCGCCACUGGAGGCCUUGCGCGACAUGAGGAUCACCCAUGUUGGCCCGGCCUCAGGACCGGGUUCGCGCGAG [Same State - Tryptophan B Attempt #2]
apparent KD of MS2 coat protein (input ligand: arginine 13.2 mM): 12.3 nM | apparent KD of MS2 coat protein (input ligand: none): 11.3 nM | apparent KD of MS2 coat protein [1]: 12.3 nM | apparent KD of MS2 coat protein [2]: 9.73 nM | apparent KD of MS2 coat protein [3]: 10.1 nM

CGGACAUGAGGAUCACCCAUGUACACUGAAGGAGCGUCGAGAACGACAGGUAGGUCGCAGGUUGAGGAAGGUGAUGCUCAAGAAG [Exclusion Arginine A GF4]
apparent KD of MS2 coat protein (input ligand: arginine 13.2 mM): 25.1 nM | apparent KD of MS2 coat protein (input ligand: none): 44.7 nM | apparent KD of MS2 coat protein [1]: 71.9 nM | apparent KD of MS2 coat protein [2]: 57.4 nM | apparent KD of MS2 coat protein [3]: 50.6 nM

GAUGAUAUUGCAGAUACCAGACACAUGAGGAUCACCCAUGUCGUUGGGUCGCUGGGUCGUGUCCCUUGGCAGCUGCGAUAUCAUC [#04 Exclusion-TheophyllineB]
apparent KD of MS2 coat protein (input ligand: arginine 13.2 mM): 28 nM | apparent KD of MS2 coat protein [1]: 52.6 nM | apparent KD of MS2 coat protein [3]: 31 nM
